Measured values from patent US6699662B1, “Inhibitors of staphylococcus SarA protein function involved in the expression of staphylococcal virulence factors and the use thereof in treating staphylococcal infections” (priority 1999, dated 2004).

System: P2-P3 promoter region
Test: DNase I footprinting of SarA binding to the agr regulatory region
Set-up: species or system Staphylococcus aureus
Details: 40 pM 32P-labeled DNA; regions A1, A2, B1, B2, C1, C2
Protocol: To test this notion and identify binding sites for SarA in this region, DNase I footprinting was perfomred with the purified SarA. […] The data were quantified by phosphorimaging.
SarA was allowed to bind to the DNA in a reaction mixture containing 40 pM of ^32P-labeled DNA, 10 mM Hepes (pH 7.6), 5 mM MgCl2, 1 mM CaCl2, 1 mM DTT, and 100 mM KCl at room temperature for 30 minutes. An amount of DNase I, which produced approximately 50% non-nicked DNA, was added to the reaction mixture and incubated for 2 minutes. The reaction was quenched by addition of stop solution (80% EtOH, tRNA (1 ug/ml), 0.3 M NH4OAc) and immediately put into a dry ice/EtOH bath for 30 minutes. A visible pellet was obtained after centrifugation and washed with 70% ethanol. Following denaturing gel electrophoresis, the DNA fragments were detected and quantified by phosphoimaging. The radioactivity in the bands for samples containing SarA was subtracted from the no protein control using Microsoft Excel. The concentration of SarA required to protect a cleavage site fully was determined. To identify the regions of protection within the inter-promoter region, purine sequencing was included in the analysis. Chemical sequencing was done according to standard procedures.

B1: SarA: purified full-length recombinant S. aureus (strain DB) SarA protein expressed in E. coli (protein)
chain: AITKINDCFELLSMVTYADKLKSLIKKEFSSISFEEFAVLTYISENKEKEYYLKDIINHLNYKQPQVVKAVKILSQEDYDKKRNEHDERTVLILVNAQQRKKIESLLSRVNKRITEANNEIEL
  SarA concentration at which the footprinted regions were protected by more than 50%: 3 to 6 pM
